From the supplement of paper PMC7125110
± gives the standard error. For some assays here: Fewer inactive variants are shown than the library holds.

B1: glmS ribozyme (parent)
chain: AUAAAAGCGCCAGAACUACAGAAAUGUAGUUGACGAGGAGGAGGUUUAUCGAAUUUUCGGCGGAUGCCUCCAAA

Columns and labels:
Settings in all cases: with glucosamine-6-phosphate
glucosamine-6-phosphate [1] = variants of: B1; assay: kcat; higher = faster cleavage; RNA array
Method in brief: (§1)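 Ribozyme variants carrying barcodes were transcribed in situ on sequenced MiSeq chips by E. coli RNA polymerase and tracked at 37 °C with a hybridised Cy3 probe. They were exposed to 40 μM to 10 mM glucosamine-6-phosphate in HEPES/KCl/Mg(OAc)2 buffer. kobs came from exponential decay fits of normalised per-tile medians, and kcat and KM from weighted Michaelis–Menten fits.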

glucosamine-6-phosphate [2] = variants of: B1; assay: KM; higher = weaker cofactor use; RNA array
Method in brief: as §1

glucosamine-6-phosphate [3] = variants of: B1; assay: self-cleavage kobs at 640 uM GlcN6P; higher = faster cleavage; RNA array
Method in brief: as §1

glucosamine-6-phosphate [4] = variants of: B1; assay: self-cleavage kobs at 2500 uM GlcN6P; higher = faster cleavage; RNA array
Method in brief: as §1

glucosamine-6-phosphate [5] = variants of: B1; assay: self-cleavage kobs at 10000 uM GlcN6P; higher = faster cleavage; RNA array
Method in brief: as §1

glucosamine-6-phosphate [6] = variants of: B1; assay: self-cleavage kobs at 40 uM GlcN6P; higher = faster cleavage; RNA array
Method in brief: as §1

glucosamine-6-phosphate [7] = variants of: B1; assay: self-cleavage kobs at 160 uM GlcN6P; higher = faster cleavage; RNA array
Method in brief: as §1

Variant	kcat (glucosamine-6-phosphate [1])	KM (glucosamine-6-phosphate [2])	self-cleavage kobs at 640 uM GlcN6P (glucosamine-6-phosphate [3])	self-cleavage kobs at 2500 uM GlcN6P (glucosamine-6-phosphate [4])	self-cleavage kobs at 10000 uM GlcN6P (glucosamine-6-phosphate [5])	self-cleavage kobs at 40 uM GlcN6P (glucosamine-6-phosphate [6])	self-cleavage kobs at 160 uM GlcN6P (glucosamine-6-phosphate [7])
G51U C68A	2.77e-05 ± 5e-06 s⁻¹	–	–	–	–	–	–
A15C U47C	0.000622 ± 8.7e-05 s⁻¹	3550 ± 830 µM	0.000108 ± 2e-05 s⁻¹	0.000244 ± 4.5e-05 s⁻¹	0.000465 ± 7.5e-05 s⁻¹	–	–
A53C U69A	0.000135 ± 1.3e-05 s⁻¹	683 ± 200 µM	6.52e-05 ± 1.2e-05 s⁻¹	0.000124 ± 2.1e-05 s⁻¹	0.000118 ± 1.8e-05 s⁻¹	–	–
U30A G40A	0.0022 ± 0.0011 s⁻¹	–	0.000134 ± 5.6e-05 s⁻¹	0.000927 ± 0.0002 s⁻¹	0.0014 ± 0.00025 s⁻¹	4.53e-05 ± 1.6e-05 s⁻¹	7.47e-05 ± 1.6e-05 s⁻¹
C11A G32U	5.22e-05 ± 2.5e-05 s⁻¹	–	–	–	–	< 1e-05 s⁻¹	< 1e-05 s⁻¹
G29U C70A	6.65e-05 ± 8.1e-06 s⁻¹	–	4.74e-05 ± 7.5e-06 s⁻¹	6.79e-05 ± 7.2e-06 s⁻¹	5.54e-05 ± 7.6e-06 s⁻¹	–	–
G40U C70A	0.000457 ± 7.9e-05 s⁻¹	1360 ± 460 µM	0.000149 ± 1.8e-05 s⁻¹	0.000434 ± 7.3e-05 s⁻¹	0.000372 ± 4.6e-05 s⁻¹	–	3.45e-05 ± 1.4e-05 s⁻¹
unchanged	0.0712 ± 0.0079 s⁻¹	1990 ± 250 µM	0.016 ± 0.00046 s⁻¹	0.0364 ± 0.0015 s⁻¹	0.0644 ± 0.0021 s⁻¹	0.00143 ± 1.7e-05 s⁻¹	0.00462 ± 0.00025 s⁻¹
A14U U45G	0.00111 ± 0.00014 s⁻¹	1850 ± 400 µM	0.00033 ± 5.4e-05 s⁻¹	0.000633 ± 0.00013 s⁻¹	0.000917 ± 0.00013 s⁻¹	–	8.17e-05 ± 2.1e-05 s⁻¹
G29U G40A	0.000509 ± 4.9e-05 s⁻¹	859 ± 180 µM	0.000221 ± 3.7e-05 s⁻¹	0.000464 ± 6.4e-05 s⁻¹	0.000441 ± 4.7e-05 s⁻¹	2.61e-05 ± 7.8e-06 s⁻¹	7.2e-05 ± 1.3e-05 s⁻¹
C11A G59A	0.000719 ± 4.8e-05 s⁻¹	4140 ± 480 µM	9.86e-05 ± 1.6e-05 s⁻¹	0.000248 ± 5e-05 s⁻¹	0.000516 ± 5.9e-05 s⁻¹	–	–
A14U A64U G66C	1.84e-05 ± 4.5e-06 s⁻¹	–	–	–	–	–	–
A64G U65A	0.00547 ± 0.00084 s⁻¹	1850 ± 410 µM	0.00133 ± 0.00024 s⁻¹	0.00387 ± 0.00065 s⁻¹	0.00429 ± 0.00072 s⁻¹	0.000129 ± 2.2e-05 s⁻¹	0.000381 ± 7.6e-05 s⁻¹
A48U C50G C67A C68U	1.99e-05 ± 2.7e-06 s⁻¹	–	–	–	–	–	–
A53G C71A	0.00448 ± 0.002 s⁻¹	–	0.00169 ± 0.00037 s⁻¹	0.00297 ± 0.0007 s⁻¹	0.00857 ± 0.0012 s⁻¹	0.000374 ± 4.3e-05 s⁻¹	0.00085 ± 0.00013 s⁻¹
U46C C70A	0.000216 ± 5.4e-05 s⁻¹	–	0.000105 ± 1.7e-05 s⁻¹	0.000151 ± 2.5e-05 s⁻¹	0.000347 ± 8.7e-05 s⁻¹	–	5.11e-05 ± 2.3e-05 s⁻¹

Variant	kcat (glucosamine-6-phosphate [1])	KM (glucosamine-6-phosphate [2])	self-cleavage kobs at 640 uM GlcN6P (glucosamine-6-phosphate [3])	self-cleavage kobs at 2500 uM GlcN6P (glucosamine-6-phosphate [4])	self-cleavage kobs at 10000 uM GlcN6P (glucosamine-6-phosphate [5])	self-cleavage kobs at 40 uM GlcN6P (glucosamine-6-phosphate [6])	self-cleavage kobs at 160 uM GlcN6P (glucosamine-6-phosphate [7])
G29C U55A	0.00298 ± 0.00096 s⁻¹	3270 ± 1400 µM	0.000406 ± 6.1e-05 s⁻¹	0.00139 ± 0.00019 s⁻¹	0.00222 ± 0.00061 s⁻¹	4.44e-05 ± 1.1e-05 s⁻¹	0.000171 ± 3e-05 s⁻¹
A39C C71U	0.00106 ± 0.00018 s⁻¹	1570 ± 470 µM	0.000275 ± 3.1e-05 s⁻¹	0.000738 ± 8.5e-05 s⁻¹	0.000904 ± 7.4e-05 s⁻¹	4.78e-05 ± 7.5e-06 s⁻¹	9.02e-05 ± 1.2e-05 s⁻¹
C67A U69C	0.00359 ± 0.0017 s⁻¹	–	0.0019 ± 0.00079 s⁻¹	–	0.00665 ± 0.0025 s⁻¹	0.000527 ± 0.00011 s⁻¹	–
G13U C70A	3.03e-05 ± 5.4e-06 s⁻¹	–	3.7e-05 ± 1.1e-05 s⁻¹	3.54e-05 ± 9.8e-06 s⁻¹	2.01e-05 ± 1e-05 s⁻¹	–	–
U47G C70G	0.000127 ± 1.9e-05 s⁻¹	–	0.000101 ± 1.2e-05 s⁻¹	0.000138 ± 1.5e-05 s⁻¹	–	5.74e-05 ± 9e-06 s⁻¹	0.000147 ± 2.1e-05 s⁻¹
C58U C68U	6.04e-05 ± 7.7e-06 s⁻¹	2460 ± 1000 µM	–	2.71e-05 ± 8.5e-06 s⁻¹	4.92e-05 ± 7.3e-06 s⁻¹	–	–
G60C C68U	< 1e-05 s⁻¹	–	–	–	–	–	< 1e-05 s⁻¹
C50G G62U U69G	8.66e-05 ± 2.1e-05 s⁻¹	–	7.83e-05 ± 2.3e-05 s⁻¹	0.000155 ± 4.7e-05 s⁻¹	7.41e-05 ± 1.6e-05 s⁻¹	3.4e-05 ± 1.2e-05 s⁻¹	0.000155 ± 4.5e-05 s⁻¹
U31C A48U	6.21e-05 ± 6.5e-06 s⁻¹	2780 ± 1100 µM	–	–	4.85e-05 ± 9.7e-06 s⁻¹	< 1e-05 s⁻¹	< 1e-05 s⁻¹
C16U U69G	6.57e-05 ± 1.1e-05 s⁻¹	–	9.02e-05 ± 2.1e-05 s⁻¹	8.96e-05 ± 1.1e-05 s⁻¹	5.34e-05 ± 6.6e-06 s⁻¹	–	5.84e-05 ± 1.4e-05 s⁻¹
G38U U57A	1.47e-05 ± 4.2e-06 s⁻¹	–	< 1e-05 s⁻¹	–	–	–	–
U57A U65G	4.49e-05 ± 7.1e-06 s⁻¹	–	–	4.6e-05 ± 1.3e-05 s⁻¹	3.88e-05 ± 1.2e-05 s⁻¹	< 1e-05 s⁻¹	–
U47A C61U	2.03e-05 ± 6.6e-06 s⁻¹	–	–	–	–	< 1e-05 s⁻¹	–
U55G A64G	0.0303 ± 0.0073 s⁻¹	1980 ± 600 µM	0.0075 ± 0.00091 s⁻¹	0.0149 ± 0.0036 s⁻¹	0.0308 ± 0.0088 s⁻¹	0.000723 ± 0.00013 s⁻¹	0.00204 ± 0.00033 s⁻¹
C16A U45A	0.00475 ± 0.0015 s⁻¹	3620 ± 1600 µM	0.000781 ± 0.00013 s⁻¹	0.00222 ± 0.00037 s⁻¹	0.00331 ± 0.00052 s⁻¹	7.33e-05 ± 1.3e-05 s⁻¹	0.000133 ± 3.5e-05 s⁻¹
